B1: U3 small nucleolar RNA-associated protein 4 homolog (Homo sapiens), Q969X6 (parent)
chain: MGEFKVHRVRFFNYVPSGIRCVAYNNQSNRLAVSRTDGTVEIYNLSANYFQEKFFPGHESRATEALCWAEGQRLFSAGLNGEIMEYDLQALNIKYAMDAFGGPIWSMAASPSGSQLLVGCEDGSVKLFQITPDKIQFERNFDRQKSRILSLSWHPSGTHIAAGSIDYISVFDVKSGSAVHKMIVDRQYMGVSKRKCIVWGVAFLSDGTIISVDSAGKVQFWDSATGTLVKSHLIANADVQSIAVADQEDSFVVGTAEGTVFHFQLVPVTSNSSEKQWVRTKPFQHHTHDVRTVAHSPTALISGGTDTHLVFRPLMEKVEVKNYDAALRKITFPHRCLISCSKKRQLLLFQFAHHLELWRLGSTVATGKNGDTLPLSKNADHLLHLKTKGPENIICSCISPCGSWIAYSTVSRFFLYRLNYEHDNISLKRVSKMPAFLRSALQILFSEDSTKLFVASNQGALHIVQLSGGSFKHLHAFQPQSGTVEAMCLLAVSPDGNWLAASGTSAGVHVYNVKQLKLHCTVPAYNFPVTAMAIAPNTNNLVIAHSDQQVFEYSIPDKQYTDWSRTVQKQGFHHLWLQRDTPITHISFHPKRPMHILLHDAYMFCIIDKSLPLPNDKTLLYNPFPPTNESDVIRRRTAHAFKISKIYKPLLFMDLLDERTLVAVERPLDDIIAQLPPPIKKKKFGT

In the experiment the parent is B1. Particulars: with zep1_human HIVEP1, P15822.
Turning to R565W, the “effect of a mutation on the interaction” value was “decreasing interaction”.
